Laboratory results from US20240279288A1, “APPLICATION OF PLANT JAZ PROTEINS AND DERIVED POLYPEPTIDES IN PREVENTION AND TREATMENT OF HUMAN AND ANIMAL TUMORS” (ANYANG INSTITUTE OF SINO-COTTON INDUSTRY INNOVATION, priority 2021, published 2024).

What was measured:
lung cancer cells A549 = assay: CCK8 cell viability detection, A549; type: cell-based, human; conditions: CCK8, 24 h treatment; read-out: IC50, inhibition of A549 cells
Protocol: CCK8 cell viability detection: cell suspension was seeded in 96-well plates at a concentration of 5×10^4 cells/ml (100 μL/well). The plates were placed in the incubator for pre-culture (at 37° C., 5% CO2), and control and protein agents were added to each well 24 h after seeding. The plates were then placed in the incubator for 24 h, followed by addition of 10 μL CCK8 solution into each well and incubation of the plates in the incubator for 0.5-2 h before the absorbance measurement at 450 nm using a microplate reader.
Analysis of effect of GhJAZ1 protein on the cell cycle and apoptosis of tumor cells

GhMYC2 = assay: Luciferase experiment in tobacco leaves with GhMYC2; type: binding, cotton; conditions: no fluorescence on the control
Chain of GhMYC2 (as listed by the source): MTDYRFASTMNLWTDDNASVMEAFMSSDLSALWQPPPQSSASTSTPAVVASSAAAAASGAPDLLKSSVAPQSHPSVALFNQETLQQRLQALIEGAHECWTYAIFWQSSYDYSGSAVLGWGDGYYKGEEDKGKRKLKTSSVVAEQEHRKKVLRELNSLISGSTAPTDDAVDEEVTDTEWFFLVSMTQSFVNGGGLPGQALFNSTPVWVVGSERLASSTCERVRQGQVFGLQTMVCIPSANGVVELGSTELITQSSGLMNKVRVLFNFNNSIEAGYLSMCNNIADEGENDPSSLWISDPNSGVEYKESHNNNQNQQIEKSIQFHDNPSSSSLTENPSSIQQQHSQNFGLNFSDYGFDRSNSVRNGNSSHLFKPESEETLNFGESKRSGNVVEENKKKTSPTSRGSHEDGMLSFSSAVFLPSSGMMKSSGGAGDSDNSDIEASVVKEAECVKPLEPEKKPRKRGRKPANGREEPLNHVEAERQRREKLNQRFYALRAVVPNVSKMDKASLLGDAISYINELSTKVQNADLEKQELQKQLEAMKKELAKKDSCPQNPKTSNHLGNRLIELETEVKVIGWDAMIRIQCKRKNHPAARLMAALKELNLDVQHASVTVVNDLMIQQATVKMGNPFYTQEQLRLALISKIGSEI
Source text: Method of the luciferase experiment: GhJAZ1 (corresponding encoding gene sequence set forth in SEQ ID No. 39) was subcloned into pCAMBIA-CLuc vector (Chen, H., et al. “Firefly Luciferase Complementation Imaging Assay for Protein-Protein Interactions in Plants.” Plant Physiology 146.2(2008):368-376.) between KpnI and SalI cleavage sites, and the transcription factors such as GhMYC2 (corresponding encoding gene sequence set forth in SEQ ID No. 72), GhNINJA (corresponding encoding gene sequence set forth in SEQ ID No. 74), and GhCOI1 (corresponding encoding gene sequence set forth in SEQ ID No. 80) were subcloned into pCAMBIA-NLuc (Chen, H., et al. “Firefly Luciferase Complementation Imaging Assay for Protein-Protein Interactions in Plants.” Plant Physiology 146.2(2008):368-376.) between KpnI and SalI cleavage sites, respectively. […] Luciferase substrates were applied at the infected leaves before taking images and placed in a dark room for at least 6 min to quench fluorescence, followed by observation on the Nightowl-II LB983 instrument, using IndigoBasic software under the luciferase-5 min setting conditions.

NMYC = target: T1, NMYC (Homo sapiens, UniProt P04198); assay: CO-IP with NMYC in HEK293 cells; type: binding
T1 construct: with the full length of c-Myc and NMYC, respectively; expressed in transfected cells; host or cells: yeast Y2HGold
T1 sequence (P04198 1-464): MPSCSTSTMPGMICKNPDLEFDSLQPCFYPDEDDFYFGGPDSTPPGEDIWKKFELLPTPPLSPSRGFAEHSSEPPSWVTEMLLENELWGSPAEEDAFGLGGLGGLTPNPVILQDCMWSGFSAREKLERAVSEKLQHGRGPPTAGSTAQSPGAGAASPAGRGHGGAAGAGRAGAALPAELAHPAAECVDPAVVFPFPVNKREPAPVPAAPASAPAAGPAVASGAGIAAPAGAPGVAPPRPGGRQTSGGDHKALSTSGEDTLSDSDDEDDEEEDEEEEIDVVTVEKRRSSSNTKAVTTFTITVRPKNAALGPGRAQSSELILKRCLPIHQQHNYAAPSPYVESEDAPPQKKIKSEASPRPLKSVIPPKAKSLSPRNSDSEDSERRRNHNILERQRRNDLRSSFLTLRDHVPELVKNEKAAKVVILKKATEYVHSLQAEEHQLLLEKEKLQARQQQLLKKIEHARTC
Protocol: (§1) Steps of method of CO-IP experiment: Non-denaturing lysate was added to 293T cell culture plate (Pricella, Cat. No.: CL-0005), and the cells were completely lysed at 4° C. The lysate was centrifuged at 12,000 rpm for 10 min and the supernatant was collected. The corresponding antibody was added to the obtained non-denatured protein solution, which was incubated overnight at 4° C. Pierce™ protein A/G magnetic agarose (Thermo Fisher Scientific, Inc.) were washed with lysis buffer, followed by addition pre-treated beads to the cell lysate, and incubation at room temperature for 2 hours. The mixture was centrifuged at 4° C., 2,500 rpm for 5 min with supernatant removed, and the agarose beads were washed 5 times with 1 ml of lysis buffer. An appropriate amount of protein loading buffer was added to the pellet, and the sample was incubated in water bath at 100° C. for 10 min. The band of interest was detected by Western blotting.
Immunoprecipitation method (method of the experiment as Example 3) was used.

uPAR = uPAR (Homo sapiens, UniProt Q03405); assay: CO-IP experiment with uPAR; type: binding; conditions: in vivo
Chain of uPAR (Q03405 23-305): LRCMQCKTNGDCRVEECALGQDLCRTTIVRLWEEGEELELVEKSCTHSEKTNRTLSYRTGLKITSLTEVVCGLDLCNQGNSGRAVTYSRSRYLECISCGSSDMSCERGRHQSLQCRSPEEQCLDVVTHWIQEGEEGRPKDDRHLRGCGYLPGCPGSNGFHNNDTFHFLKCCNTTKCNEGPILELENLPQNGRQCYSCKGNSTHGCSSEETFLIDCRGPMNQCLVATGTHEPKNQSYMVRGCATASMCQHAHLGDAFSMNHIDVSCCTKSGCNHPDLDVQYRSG
Protocol: as §1, with “The mixture was centrifuged at 4° C., 2,500 rpm for 5 min with supernatant removed, and the agarose beads were washed 5 times with 1 ml of lysis buffer. An appropriate amount of protein loading buffer was added to the pellet, and the sample was incubated in water bath at 100° C. for 10 min.” left out
In order to explore how GhJAZ1 enters cancer cells, we cloned the genes of most tumor surface receptors, including uPAR (NCBI database accession number of NM_002659.4), CCK1R (NP_000721.1), CCK2R (NP_001350481.1), HER2 (NP_004439.2), GRPR (NP_005305.1), MUC1 (NP_001358649.1), VEGFR1 (NP_002010.2), Insulin receptor (NM_000208.4), NTR (XM_011528827.2), PSMA (XM_017017432.1), TFR1 (NM_001128148.3), TFR2 (NM_003227.4), PEPT1 (NM_005073.4), APN (NM_001150.3). […] We detected the interaction of GhJAZ1 with uPA (as the ligand of uPAR, NCBI database accession number of NP_002649.2) and uPAR by yeast two hybrid (the steps of the experiment as Example 3). […]

B1: GhJAZ1: cotton JAZ1 protein, gene number Gh_A05G0260, sequence SEQ ID No. 4; prokaryotically expressed with His tag, about 30 KD (protein)
chain: MSSCSESTAMKPARSPEKPSFAQTCNLLSQYLKEKGSFGDLSLGMTCNVEANGTPVVPPPTMNLFPLNDKSDDVCGRNGGNPKNLTSMDLFPQQAGLASKDDSPNKLEPQTAPMTIFYGGQVIVFNDFPANKAKEIMLLASNSSSQSNNSFNPIPFTSSIARSPIESSIGVPPTSKPVHPAQRAVPGDLPIARRASLHRFLEKRKDRITAKAPYQINNSAAAPSLSGDNKSWLGLAAQSP
modifications: His tag
notes: prokaryotically expressed with His tag, about 30 KD
IC50 (lung cancer cells A549): 697 nM
fluorescence with GhMYC2 after applying luciferase substrate (GhMYC2): stronger fluorescence
interaction with NMYC (NMYC): interacted
interaction with uPAR (uPAR): interacts
